In patent US20210230263A1 (BIOATLA, published 2021):

T1: human IL20 (human, UniProt Q9NYY1 25-176)
T1 sequence (looked up): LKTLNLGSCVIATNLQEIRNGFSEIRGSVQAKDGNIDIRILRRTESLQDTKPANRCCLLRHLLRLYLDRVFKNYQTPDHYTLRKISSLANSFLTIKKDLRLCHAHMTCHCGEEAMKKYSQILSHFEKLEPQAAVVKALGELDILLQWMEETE

T2: human IL19 (human, UniProt Q9UHD0 25-177)
T2 sequence (looked up): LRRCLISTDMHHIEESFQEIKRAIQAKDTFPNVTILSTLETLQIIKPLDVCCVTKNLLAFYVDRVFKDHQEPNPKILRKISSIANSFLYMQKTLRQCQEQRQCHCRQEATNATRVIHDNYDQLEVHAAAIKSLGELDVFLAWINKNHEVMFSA

T3: INF-γ (Homo sapiens (Human), UniProt P01579 24-161)
T3 sequence: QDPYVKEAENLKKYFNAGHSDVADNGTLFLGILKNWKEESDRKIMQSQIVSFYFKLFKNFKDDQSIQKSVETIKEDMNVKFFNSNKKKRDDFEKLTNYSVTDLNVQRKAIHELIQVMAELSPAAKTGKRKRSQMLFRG

T4: human IL24 (human, UniProt Q13007 52-206, limits assumed)
T4 sequence (looked up): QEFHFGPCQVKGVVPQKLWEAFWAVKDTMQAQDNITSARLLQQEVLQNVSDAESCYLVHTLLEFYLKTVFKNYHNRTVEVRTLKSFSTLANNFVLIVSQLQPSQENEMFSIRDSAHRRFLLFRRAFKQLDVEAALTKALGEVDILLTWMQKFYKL

T5: mouse IL-22 (mouse, UniProt Q9JJY9 34-179)
T5 construct: also called mIL-22; mIL22
T5 sequence (looked up): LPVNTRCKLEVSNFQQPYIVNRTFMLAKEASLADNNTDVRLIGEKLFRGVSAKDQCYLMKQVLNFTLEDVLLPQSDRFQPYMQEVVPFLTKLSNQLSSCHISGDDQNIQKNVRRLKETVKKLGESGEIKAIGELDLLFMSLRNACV

T6: human IL26 (human, UniProt Q9NPH9 22-171, limits assumed)
T6 sequence (looked up): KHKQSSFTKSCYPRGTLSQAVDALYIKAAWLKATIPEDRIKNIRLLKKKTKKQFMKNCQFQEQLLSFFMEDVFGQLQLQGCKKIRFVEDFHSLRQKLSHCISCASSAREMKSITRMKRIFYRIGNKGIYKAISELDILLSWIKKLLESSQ

T7: human IL-22 (human, UniProt Q9GZX6 34-179)
T7 sequence (looked up): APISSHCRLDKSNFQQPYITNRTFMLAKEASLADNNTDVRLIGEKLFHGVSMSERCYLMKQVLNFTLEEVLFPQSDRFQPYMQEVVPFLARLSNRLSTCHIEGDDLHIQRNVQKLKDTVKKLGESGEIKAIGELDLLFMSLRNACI


Tests used:
human IL20 = biological target: T1, human IL20; assay: ELISA on coated antigen (1 ug/ml), anti-hIgG-HRP, OD450;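 further: specificity check of antibodies applied at 100 ng/ml to wells bearing human or mouse IL-22, related cytokines or an unrelated control antigen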
Procedure: (§1) Plates were coated with 100 μl antigens at a concentration of 1 μg/ml. The plates were exposed to the antibodies at a concentration of 100 ng/ml. The bound antibodies were detected with anti-hIgG-HRP by the ELISA assay.

human IL19 = biological target: T2, human IL19; assay: as above
Procedure: as §1

INF-γ = biological target: T3, INF-γ; assay: as above
Procedure: as §1

human IL24 = biological target: T4, human IL24; assay: as above
Procedure: as §1

mouse IL-22 [1] = biological target: T5, mouse IL-22; assay: as above
Procedure: as §1

human IL26 = biological target: T6, human IL26; assay: as above
Procedure: as §1

INF-λ1 = INF-λ1 (Homo sapiens (Human), UniProt Q8IU54 20-200); assay: as above
Procedure: as §1

human IL-22 [2] = biological target: T7, human IL-22; assay: cell-based or functional assay
human IL-22 [3] = biological target: T7, human IL-22; assay: affinity ELISA on hIL22, mAb concentration at 50% max signal
human IL-22 [4] = biological target: T7, human IL-22; assay: SPR (SierraSensors SPR-2), hIL-22 immobilized on chip, antibody injected, Langmuir 1:1 model
Procedure: (§2) The affinity of the 10 antibodies of Table 1 was measured by Surface Plasma Resonance (SPR) using a capture assay on a SPR-2 instrument (SierraSensiors, Hamburg, Germany). The antigens hIL-22 and mIL-22 were immobilized on chips. The running buffer for the assay contained 10 mM HEPES with a pH of 7.4, 500 mM NaCl, and 0.05% TWEEN® 20. […] The off-rate was measured for 6 minutes. Binding constants were calculated using the curve fitting software Analyzer2 (Sierra Sensors). Sensorgrams were analyzed with the instrument specific software and with BIAevaluation 4.1 software. The binding data were analyzed using the Langmuir 1:1 model (human IL-22) or a model for a heterogeneous ligand (mouse IL-220).

mouse IL-22 [5] = biological target: T5, mouse IL-22; assay: SPR (SierraSensors SPR-2), mIL-22 immobilized on chip, antibody injected, heterogeneous ligand model
Procedure: as §2

mouse IL-22 [6] = biological target: T5, mouse IL-22; assay: affinity ELISA on mIL22, mAb concentration at 50% max signal
[7] = biological target: IL-22 (CXCL1 assay in HT29 cells); assay: cell-based or functional assay
mouse IL-22 [8] = biological target: T5, mouse IL-22; assay: cell-based or functional assay
human IL-22 [9] = biological target: T7, human IL-22; assay: affinity ELISA on hIL22, mAb concentration at 50% max signal (second row of the same name)
mouse IL-22 [10] = biological target: T5, mouse IL-22; assay: affinity ELISA on mIL22, mAb concentration at 50% max signal (second row of the same name)
[11] = biological target: IL-22 (CXCL1 assay in HT29 cells); assay: cell-based or functional assay; remark: listed apart in the source

Sequence of INF-λ1 (Q8IU54 20-200 limits assumed): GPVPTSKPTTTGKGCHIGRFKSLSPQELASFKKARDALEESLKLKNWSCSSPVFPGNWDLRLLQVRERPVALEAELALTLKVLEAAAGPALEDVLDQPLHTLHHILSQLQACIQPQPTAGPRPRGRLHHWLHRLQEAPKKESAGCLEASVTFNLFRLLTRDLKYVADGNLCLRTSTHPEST

| binding result (human IL20) | binding result (human IL19) | binding result (INF-γ) | binding result (human IL24) | binding result (human IL26) | binding result (INF-λ1) | STAT3 Phosphorylation; hIL22 % inhibition mAb [0.73 nM] (human IL-22 [2]) | EC50 (human IL-22 [3]) | Kd (human IL-22 [4]) | koff (human IL-22 [4]) | Kd (mouse IL-22 [5]) | koff (mouse IL-22 [5]) | EC50 (mouse IL-22 [6]) | CXCL-1 Assay (IC50 [pM]) double data points 02122015 [7] | CXCL-1 Assay (IC50 [pM]) single data points 02052015 [7] | Acute Phase response 5 µg mIL22 and 5 µg mAb (% signal reduction), molar ratio mIL22: mAb = 4.5:1 (serum amyloid in mice) (mouse IL-22 [8]) | EC50 (human IL-22 [9]) | EC50 (mouse IL-22 [10]) | IC50 (parameter C of the log-logit fit y=(A-D)/(1+(x/C)^B)+D) of inhibition of IL-22-induced CXCL1 production in HT29 cells [11] | Binder | also measured |
| --- | --- | --- | --- | --- | --- | --- | --- | --- | --- | --- | --- | --- | --- | --- | --- | --- | --- | --- | --- | --- |
| no binding (tested: 100 ng/ml) | no binding (tested: 100 ng/ml) | no binding (tested: 100 ng/ml) | no binding (tested: 100 ng/ml) | no binding (tested: 100 ng/ml) | no binding (tested: 100 ng/ml) | 7% | 2.22 nM |  |  |  |  |  |  |  |  |  |  |  | hum10 (antibody, V domains shown, Humanized monoclonal antibody derived from murine 3C3; also called parent antibody hum10; humanized 3C3) VH: QVQLVQSGAEVKKPGASVKVSCKASGYIFTSYWIHWIRQPPGKGLEWIGRIYPGTGNTYYNEKFKGRVTISADKSISTAYLQWSSLKASDTAMYYCARSYDSSCAYWGQGTLVTVSS VL: AIQLTQSPSSLSASVGDRVTITCSASSSVSYMHWYLQKPGQSPQLLIYETSKLASGVPSRFSGSGSGTDFTFTISSLEAEDAATYYCQQWSSNPYITFGQGTKVEIKR | binding result (mouse IL-22 [1]): no binding (tested: 100 ng/ml) |
|  |  |  |  |  |  | 12.1% | 0.081 nM | 0.0253 nM | 2.18e-05 s⁻¹ | 3.96 nM | 0.000768 s⁻¹ | 0.141 nM | 204 pM | 411 pM | 73% | 0.074 nM | 0.034 nM | 61.6 ng/ml | CPS-09 (antibody, V domains shown, Mutant of humanized hum10, whole antibody expressed in CHO cells; also called CPS-hit-09; CSP09) VH: QVQLVQSGAEVKKPGASVKVSCKASGYIFRSYWIHWIRQPPGKGLEWIGRIYPGTGRTYYNEKFKGRVTISADKSISTAYLQWSSLKASDTAMYYCARSYDYSVAYWGQGTLVTVSS VL: AIQLTQSPSSLSASVGDRVTITCSASSSVSYMHWYLQKPGQSPQLLIYETRKLASGVPSRFSGSGSGTDFTFTISSLEAEDAATYYCQQWSSNPYITFGQGTKVEIKR | Acute Phase response 5 µg mIL22 and 50 µg mAb (% signal reduction), molar ratio of mIL22:mAb = 1:2.2 (serum amyloid in mice) (mouse IL-22 [8]): 42% |
| no binding (tested: 100 ng/ml) | no binding (tested: 100 ng/ml) | no binding (tested: 100 ng/ml) | no binding (tested: 100 ng/ml) | no binding (tested: 100 ng/ml) | no binding (tested: 100 ng/ml) | 33.8% | 0.027 nM | 0.025 nM | 4.67e-05 s⁻¹ | 3.28 nM | 0.000545 s⁻¹ | 0.042 nM | 131 pM | 197 pM | 81% | 0.054 nM | 0.019 nM | 29.5 ng/ml | CPS-02 (antibody, V domains shown, Mutant of humanized hum10, whole antibody expressed in CHO cells; also called CPS-hit-02; CSP02) VH: QVQLVQSGAEVKKPGASVKVSCKASGYIFRSYWIHWIRQPPGKGLEWIGRIYPGTGRTYYNEKFKGRVTISADKSISTAYLQWSSLKASDTAMYYCARSYDSSVAYWGQGTLVTVSS VL: AIQLTQSPSSLSASVGDRVTITCSASSSVSYMHWYLQKPGQSPQLLIYKTRKLASGVPSRFSGSGSGTDFTFTISSLEAEDAATYYCQQWSSNPYITFGQGTKVEIKR |  |
